In the DeepSol protein solubility set:

Assay: soluble on expression in E. coli; label from the status in PepcDB or PDB records

Row | Sequence | soluble on expression in E. coli
1 | MSLELVSFVKSHIDQAVYFSTITSNPIEFNLPESLSLDTTDIENDIKTSCDEIFYSTGSYIPPMLNTLEQHLNLRIEYFNNLIEFTKINFNYKISPTVKLYLIEKISILKCCLALFKYISDKAILSNIWRDLVLNSFNDSSLEEFVLGKLDEFPRLFTIFLNDLSAKIVGFNDVEEKVKIVDLLITCVYDAVLENCEKSIRYDALQLDPLELDNKPMWFTNLTNIKAMNNIFFSFIFPDNDLSVENKQRLLTVVKLLYYVINQNMIWHKSMKQIETEEYKEVEALYNDNHANWIHVLCNIGVHEEALQICEFYHDLGGLVEILEKLDFEISRELYDQYFKMFGYEFATILFEYYINAKDLKALFFKFPNHHDLLNKFLLSSPPKYYKYAWIQEIIDNDYRKASDILTTLSVGEAGDGCEISERQLHLNIAKLSGLVDENFDANQMIEIQRDIDTIDHQTRIKKLLEEDPTGISMNQAFANNEFGEKFQETKYCIQNDKSINIKYIIDMLSMMDSVENLYEALKLTCIYRHSLGYEVSKYFQQSIWRRCIIEESKDGVIQLEGENSKIYQLLVKYFEGKLYEYDCKLPFVSFLMDRIGISMNFLSIIYGNDNNVLVSISDSIEREYHDLIRIGDTLESQLSTIIGSANEGHHHHHH | not soluble
2 | MSLTSYALLHTQRVTAKNGEVFTISPDLWERNQQQQSLLLRYFALPLKEENNRLWLGVDSLSNLSACETIAFITGKPVEPILLESSQLKELLQQLTPNQMQVEEQVEGHHHHHH | soluble
3 | MLYKRKNIKFKNFVDLHKNLSLSKLFDFYSVFEGFEKLNILNFEDDVFTNIERILLDDYLKIKSYFALDETSSYALTLLAKNNRKRFSINRKIQHFKALSTLKYLLETGIIKLEYSKEAKKIKDKRQKIKKELRSYVVQDKIIFSNHFTRFFFYFLKPNEKLILQNRYKEVLECIKEKFELYQSFCFEQLSRELLEKKFNINGVQSYWDKNLELDLYYQDENLCFVGEVKFKNKKICKNILNLLKSKAKSLNLAPNYYIIISKNGFSKEIDKICEQNLLLLDLNDFKILLEELEHHHHHH | not soluble
4 | MKIAIVGAGIGGLTAAALLCEQGHEVKVFEKNSTITEVGAGIGIGGNVIDKLGKHDLAKGIKNIGQVINVMEILDDKDNVLSKAKLKKNTVNLTMTRQSLIDVIKSYVSESAIYTNHHVTHVDNNALKVVMHFEAQEAEAFDLCIGADGLHSNIRHTVAPNSKTQYQGYTVFRGLVEDIDIKSDNVAKEYWSAKGRVGVVPLLNNQAYWFISINAKENDATMQSYGKPHLQARFNHFPNEVRKVLDKQSETDILLHDIYDLQPLKTFVYQRVILLGDAAHATTPNMGQGAGQAMEDAIVLANCLQAYPFEAALQRYDKIRVDHTKKVIKRSRKIGKLAQRSNKIVISLRNSIAKIMPNRLVAAQTKFIYKSKNKLEHHHHHH | soluble
5 | MGSDKIHHHHHHMDVLRCENLKKRFGRRYVVNGVNLEFHRGEIVGLLGPNGAGKTTIFNMILGVVVPTSGKIIFRDVDITKFPVYRRARLGITYLQQETSIFGGLTVRENIDLVLRFHEKDKEKRERKIEELLHEFHLKHLENQPASFLSGGEKRKLELARMMCLNPAFILLDEPFSGIDPKTVKEIQKMTLELKQKNFGIVITDHNVDELVEIADRIYVIYKGEILAEGSPERILEDETVREVYLGT | not soluble
6 | MGNQSARQLSTHRKHVVHTWNTINSHDPQLLSDAISEAWLKSAELTPTWVWALVDLPETMHATYKENAQFLNIINQVRDFLNILIKVHKCDPEMIKTLSFRLGARHRHYMNEGNDNCFWAPFAQQLPIAMSKMYMRVVTEDSKIRRILRIRSRAAEKSEEEEVCESWRQFSCMLIESMKRGYEGCASEKTPLRLSITNSIISMASMRSSRSRSASHFLEPNMSPAIAPMCALLGSTESNSTTTTTQPSSPITPYRRRSMFRAGGALQRNSQDFTALRNRRMSSPNNPSILLNNCDIQLLKLTSQLSPLEDQVKQNRVPGRAHQQRRSITLLNFDHHHRARSPTT | not soluble
7 | MAISKRHIGPYIIRETLGEGSFGKVKLATHYKTQQKVALKFISRQLLKKSDMHMRVEREISYLKLLRHPHIIKLYDVITTPTDIVMVIEYAGGELFDYIVEKKRMTEDEGRRFFQQIICAIEYCHRHKIVHRDLKPENLLLDDNLNVKIADFGLSNIMTDGNFLKTSCGSPNYAAPEVINGKLYAGPEVDVWSCGIVLYVMLVGRLPFDDEFIPNLFKKVNSCVYVMPDFLSPGAQSLIRRMIVADPMQRITIQEIRRDPWFNVNLPDYLRPMEEVQGSYADSRIVSKLGEAMGFSEDYIVEALRSDENNEVKEAYNLLHENQVIQEKLEHHHHHH | soluble
8 | MLSNDILRSVRYILKANNTDLARILALGNVDATPEQIAIWLRKEEEEGFQRCPDIVLSSFLNGLIYEKRGKDEAAPALTAERRINNNIVLKKLRIAFSLKTDDILAILTGQLFRVSMPEITAMMRAPDHKNFRECGDQFMRYFLRGLAAREHAAK | not soluble
9 | MGSDKIHHHHHHMDVDLNELAGQFASGFLTVDGVYRTTLEAGRVLGHTRAYPTPKSGFLFALKGEASFVFNGTAYHLSPGKVVHGGKNMELIVKVGPAAFEYCLIHYTLHTRSNHPNDTDSHFLLEPGENLAITEKLDLLHRIKSTPGNFPEIQAKALFYTIFHDMLICARNRLNRESQLVIEQVVEYIHHHYMEPMTVKKLADMSGMGVKPFSYLFKKYIGMFPIDYLIQYRLKRAKNLLVSSNSSIADIAESIGYLDALYFSRLFKKHIGCSPTAFRAQMGNCPSDDQ | not soluble
10 | MGSDKIHHHHHHMSFYIYGILTLPAPQNLNLEGLDRQPVQIKILDDFAVIYSEAQQERYLASRRNLLSHEKVLEEIMQAGDRYLLPVQFGLLVSSWETVSQQLIRPHQEELTQLLAKLSGCREVSVKVFWDTEAEIQGLLAEHPNLKTERDKLVGQPLSMERVIQIGQVIEQGMSDRKQGIIDVFKGTLNSIAIEVVENTPQVDTMIYNSAYLIPWEAESQFSEHVESLDRQFENRLRIRYNNFTAPYNFARLRLTTSN | not soluble
11 | MQRTGELPAEHVPVILESSGAGDFHLIDSGNGLKLEQYGDYRVVRPEAQALWRPLVPDRVWQNADAIFTGDTDEDGMGRWRFPKEALGETWPLSLLGVEFLGRFTAFRHVGVFPEQIVHWEWLKNAVETADRPLKVLNLFGYTGVASLVAAAAGAEVTHVDASKKAIGWAKENQVLAGLEQAPIRWICEDAMKFIQREERRGSTYDIILTDPPKFGRGTHGEVWQLFDHLPLMLDICREILSPKALGLVLTAYSIRASFYSMHELMRETMRGAGGVVASGELVIREAGLDGKTPGRVLSTSLFSRWEPK | soluble
12 | MSLTALYVQNKINGKIILPFSHSMTNVLRLNRSYGRTMLISNTYNQHFPQLTQEQLARNATKKVICGMSGGVDSSVSAFILQQQGYQVEGLFMKNWEEDDDTDYCTAAADLADAQAVCDKLGIKLHKINFAAEYWDNVFEHFLTEYKAGRTPNPDILCNKEIKFKAFLEYAAEDLGADYIATGHYVRRAGDNENAKLLRGLDPNKDQSYFLYTLSHKQVGQSLFPVGEIEKPIVRAIAEDLGLITAKKKDSTGICFIGERKFKDFLARYLPAQPGNIRTVDDEIIGRHDGLMYHTLGQRKGLGIGGLKNAGDEAWYVVDKDVENNELIVAQGHDHPRLFSKGLIASQLHWVDREPIRESLRCTVKTRYRQQDIPCVIEPIDDETIRVIFDEPQSAVTPGQSAVFYLGEVCLGGGIIAERIEGHHHHHH | soluble
13 | MALAEADDGAVVFGEEQEALVLKSWAVMKKDAANLGLRFFLKVFEIAPSAKQMFSFLRDSDVPLEKNPKLKTHAMSVFVMTCEAAAQLRKAGKVTVRETTLKRLGATHLRYGVADGHFEVTGFALLETIKEALPADMWSLEMKKAWAEAYSQLVAAIKREMKPDA | soluble
14 | MGSDKIHHHHHHMGARLKHYGWGREGEGMNEAEQAFVLGRYKAKFGRDSFDTVEVAHLDDIKLREPRIVPPKSLSEICAVDVYHRAAHAYGKSYPDYVRGMLGDYDAAPDVVAYPRDEAEIAAVMDWAGGAGAALTPFGGGSSVCGGVECRVDGNRHKAAVTLDLRHLGKVLEVDATSRAALIQGGAYGPALEAQLKPHNVTLRHFPQSFEYSTLGGWIATRSGGHYASLYTHIDDFVESVRVVTPRGVLETRRLPGSGAGPSPDRMFIGSEGILGVISAAWMRLQSRPRFRAGASVRFPSFFAAARAVRAVAQAGLYPSNCRILDPQEAYNTGAADGSVAIMVLAFESGDHPVEPWMARALECCADHGGIREEAEASSGHLEGAAGLWRNAFIRMPYAREFLTPAGLINDTFETSITWERFESFHDSVKTVTEQAILDATGIKGEVTCRFTHVYPDGPAPYFSFHALGRHGELLEQWQAIKDAASDALIAAGGTITHHHAVGRDHRKWYDRQRPDLFAVALRAAKRELDPQAMLNPGVLIDP | not soluble
15 | GMADAPIDIFQSILSRKSIRAFTDQPVTQETIREILKLAARAPSGTNLQPWQVIVLTGKILQKVGQELSQLVLSGIKGEREYHYYPRQWREPYLSRRRKVGLDLYKSLGIQKGDQEKMLHQKAKNFLFYGAPVGLLFTIDHDMEMGSWLDLGMFMQTIMLAARGFGLDTCAQAAFADYHKQIRSLLSVPSDRHIICGMALGYRDMNAPENNFETEREPIDNFVHFIKSYP | soluble
16 | MSLDDFCNIPKGKEVVFGFNVPQSGAYADEGMDELKAYQLAVKHLNGEGDGGMLKTMKPLALKGNGVLGKKVTFVSGDTQTKADQARATAKRMIEKDGAIMITGGSSSAEAVAVQSLCQDVGVIFMAGLTHSNDTTGKDKRAYGFRHFFNAYMSGVALGPVLAEAYGKDRAAYHLTADYTWGWTQEESMKDATEKQGWKTVKAVRTPLGAADFSQYITPVLNSGADVLILNHYGKDMINSLTQAVQFGLRDKMANGKKFEIVVPLFSELMAQGAGDAIKGIYGTANWDWKLEDAATSAFTKSFGAAYGTPPSQAAQTCYVQAILYADAVERAGTFNPSKVIAALEGFEFDGLGNGKTLYRAADHQCFKDVLVVQGKEKPKEGHHHHHH | not soluble
17 | PYHGKSKPNKETFVCDLKTSLSNEAIGYIGKANTVGILLSGGMDSRVVAGVVRDLQKNNRSISVVGITWGNANSRDVIYSQRICQQFGWEFVHFPITAETLHKNIQLSAKMGAEVSALHFHAMSDVADLKGVDVILAGSYGDSVGRAEFSGKHVTKLSSVLPSRINNLGLIKDELFQSALESIRNDAQLPAFHNAGDNNLRKYEIEQECHYMRRMLQSCMHVVAEKIPFYQMFTAPSVFGLMWGLEPNIRNNDWYVELLNILPGQLLQIPWARTGILYHLPEGTADEFDKSYHQYGLWLKTELKDEMLNAMNSKSIRELGIFN | not soluble
18 | MGSDKIHHHHHHCSEELDSQPMESYPEGGEPLDVVCKEYGISDYEDIELLSYYKNNLEQANFSGLREEKLWLASFNVKDKSPIINWTDELPFNRNRKIYKGYGEYEDVTIQQITMLQTMYFNPKEFVASLSYYFGKDYGYLALLFRHDTQTKEVQVKRSEILAGFQYSIINNDCCYSLSGDTLYIAEKGFGYSNVGTLYTSEFISHEEAIYTHRDNKGFFVGRRNFKLGEDLWHIQVPQLNDEPADAKIEVSVEDNSKRVWKYNVNIIHYDGTKKNVTFEVDIDNGTIKGENDYTSLIIGKWKKTSGDAVATHVTYKNDGTFEYTSTEDSSYKEVGKYKIDGNKLYEMYSDEEEWIINDILLLNSMTLSVQELEADGVTPTGQKYSYQRVE | not soluble
19 | MTNIWKKNYETAKEVEEFVKKAYELGDVTELELLRAKRERSIAEVKLKVSRSKYEASLKELSRLLAKEVRDVEGELSAGVAMKEVNIDTLPVVLSIKKKIEAIDRQIQLEKALAKPKLATGFVVEESEEGYYGLRGSLTLELPLFYRREGEILQNIAMKKALKRRLEAELLKVKSRLESVKIRLETLQKELEKLEREVIPRAREELALAIKSYKLKAITLLELSDVRRKYYELLINRAELLLDIHRTYSEFIEIGGWRR | not soluble
